Experimental data as given in the PETadex activity labels (doi:10.1021/bi00096a018).
Substitutions are numbered along the chain they refer to.

Substrate: Acetylcholine
Conditions: pH 7; 22 °C

B1: unnamed (protein)
chain: MRPPWYPLHTPSLAFPLLFLLLSLLGGGARAEGREDPQLLVRVRGGQLRGIRLKAPGGPVSAFLGIPFAEPPVGSRRFMPPEPKRPWSGVLDATTFQNVCYQNVDTLYPGFEGTEMWNPNRELSEDCLYLNVWTPYPRPASPTPVLIWIYGGGFYSGAASLDVYDGRFLAQVEGAVLVSMNYRVGTFGFLALPGSREAPGNVGLLDQRLALQWVQENIAAFGGDPMSVTLFGESAGAASVGMHILSLPSRSLFHRAVLQSGTPNGPWATVSAGEARRRATLLARLVGCPPGGAGGNDTELIACLRTRPAQDLVDHERHVLPQESIFRFSFVPVVDGDFLSDTPEALINTGDFQDLQVLVGVVKDEGSYFLVYGVPGFSKDNESLISRAQFLAGVRIGVPQASDLAAEAVVLHYTDWLHPEDPTHLRDAMSAVVGDHNVVCPVAQLAGRLAAQGARVYAYIFEHRASTLTWPLWMGVPHGYEIEFIFGLPLDPSLNYTTEERIFAQRLMKYWTNFARTGDPNDPRDSKSPQWPPYTTAAQQYVSLNLKPLEVRRGLRAQTCAFWNRFLPKLLSATDTLDEAERQWKAEFHRWSSYMVHWKNQFDHYSKQERCSDL
- Km: 670 µM
- kcat: 3170 s⁻¹

B2: unnamed (protein)
chain: B1 chain with N103Y, Y155Q, R317W
- Km: 120 µM
- kcat: 1830 s⁻¹

B3: unnamed (protein)
chain: B1 chain with Y155Q, R317W
- Km: 95 µM
- kcat: 1570 s⁻¹
